Measurements published in the supplement of paper PMC12783771.
Numbering of substitutions follows the chain as printed. ± gives the standard deviation of the averaged measurements.

B1: library; a variant is named by its letters at X, in order (parent)
chain: MNIQIGELAKRTACPVVTIRFYEQEGLLPPPGRSRGNFRLYGEEHVERLQFIRHCRSLDMPLSXVRTLLSYRKRPDQDCGEVXMLLDEHIRQVESRIGALLELXHHXVELREACSGARPAQSCGILQXLSXCVCXTRGTTAHXSD
B2: library; a variant is named by its letters at X, in order (parent)
chain: B1 chain with X64D, X104K, X107L

Tests used:
[1] = variants of: B1; assay: sfGFP reporter fluorescence (15 h) (µM FITC); higher = higher leak; details: library round: Round 3; ligand: none
Description: (§1)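 Cell-free biosensing: 1 µL Echo-assembled CFE reactions with linear PbrR variant templates (5 nM) and pPbrR-sfGFP reporter, with 1 µM Pb, 30 µM Zn or no ligand; endpoint sfGFP fluorescence after 15 h at 30 °C calibrated as µM FITC. Round 3 ML-predicted PbrR mutants; up to 3 biological replicates.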

[2] = variants of: B1; assay: sfGFP reporter fluorescence (15 h) (µM FITC); higher = stronger transcriptional activation; details: library round: Round 3
Description: as §1

[3] = variants of: B2; assay: sfGFP reporter fluorescence (15 h) (µM FITC); higher = higher leak; details: library round: Round 2; ligand: none
Description: (§2)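 Cell-free biosensing: 1 µL Echo-assembled CFE reactions with linear PbrR variant templates (5 nM) and pPbrR-sfGFP reporter, with 1 µM Pb, 30 µM Zn or no ligand; endpoint sfGFP fluorescence after 15 h at 30 °C calibrated as µM FITC. Round 2 ML-predicted PbrR mutants; up to 3 biological replicates.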

[4] = variants of: B2; assay: sfGFP reporter fluorescence (15 h) (µM FITC); higher = stronger transcriptional activation; details: library round: Round 2
Description: as §2

Variant	sfGFP reporter fluorescence [1]	sfGFP reporter fluorescence ([2]; ligand: 1 µM Pb)	sfGFP reporter fluorescence ([2]; ligand: 30 µM Zn)	sfGFP reporter fluorescence [3]	sfGFP reporter fluorescence ([4]; ligand: 1 µM Pb)	sfGFP reporter fluorescence ([4]; ligand: 30 µM Zn)
DTKLGAPW V108L	0.0408 ± 0.002	0.146 ± 0.0032	0.1781 ± 0.0015	–	–	–
DTKLGCDA Q121A	0.0408 ± 0.00071	0.107 ± 0.0045	0.117 ± 0.0042	–	–	–
DTKLGCDL Q121A	0.0413 ± 0.00047	0.101 ± 0.0031	0.103 ± 0.0093	–	–	–
DTKLGCDP V108L Q121A	0.043 ± 0.0018	0.117 ± 0.0039	0.116 ± 0.0027	–	–	–
DTKLGDAL Q121A	0.04099 ± 0.00034	0.104 ± 0.004	0.329 ± 0.015	–	–	–
DTKLGDPR V108L	0.043 ± 0.0024	0.0866 ± 0.0042	0.142 ± 0.0031	–	–	–
DTKLGDRR E109L	0.0416 ± 0.0019	0.103 ± 0.005	0.224 ± 0.0067	–	–	–
DTKLGHPY Q121A	0.0423 ± 0.0015	0.206 ± 0.019	0.289 ± 0.021	–	–	–
DTKLGMAP V108L	0.0403 ± 0.00095	0.0673 ± 0.0042	0.288 ± 0.018	–	–	–
DTKLGMPP V108L	0.0413 ± 0.00089	0.144 ± 0.0074	0.187 ± 0.0045	–	–	–
DTKLGSDP Q121A H142A	0.0408 ± 0.0014	0.106 ± 0.0044	0.472 ± 0.015	–	–	–
DTKLGSDP V108L H142A	0.0396 ± 0.00089	0.076 ± 0.0048	0.278 ± 0.029	–	–	–
DTKLGSPL	0.0411 ± 0.0014	0.1583 ± 0.0015	0.196 ± 0.019	–	–	–
DTKLGSPP Q121A	0.0408 ± 0.0027	0.186 ± 0.0074	0.3204 ± 0.0016	–	–	–
DTKLGSPP V108L	0.0404 ± 0.0007	0.127 ± 0.0092	0.186 ± 0.0066	–	–	–
DTKLGSPP V108L Q121A	0.0413 ± 0.00089	0.2 ± 0.0066	0.337 ± 0.004	–	–	–
DTKLGSRP V108L	0.0395 ± 0.0015	0.117 ± 0.0088	0.28 ± 0.012	–	–	–
KTVLIDDP P61T	0.0467 ± 0.002	0.106 ± 0.0053	0.251 ± 0.023	–	–	–
DVVLGDDR H106A	0.043 ± 0.0021	0.126 ± 0.007	0.0489 ± 0.0029	–	–	–
NHDDW E109L	–	–	–	0.0479 ± 0.00051	0.0832 ± 0.0024	0.399 ± 0.045
NHEDW	–	–	–	0.0563 ± 0.0014	0.119 ± 0.014	0.842 ± 0.068
NTDAP M60L P61N D64K	–	–	–	0.878 ± 0.074	2.33 ± 0.17	3.33 ± 0.36
